# Laboratory results reported in the DeepSol protein solubility set.
# Test: soluble on expression in E. coli; label from the status in PepcDB or PDB records
row,Sequence,soluble on expression in E. coli
1,MARNPRTTVRRILNSAPRSLLIQSVTIVALDPTDNNHGSHQPGSNGPSNSSTQADNFETETTADEERQKEDGVEDELEDEETTGFIDEDGEIRYPVDEVGNYEIDQEAETDESFYLDTQRDSSLCDERSQLCRSLSDQNLRTTFFLITTTNSKAAILRYLHFHNVSQDSILRKLLLNDSHLTLVEVCNLCAQNIELCKCEDMQEKCQLIFGDLKKWLEVILNSFANIMMKTKTTILEGYNSSSPINKGIFKKKLLSEMADNEMWMHFESSFDGIKVHKNGNQNIWPYSLLNLDLEDVHRASPQALILAALFIGFKNPTTKIHDRLTQWILLQMDEHVFFSEGVAWKADLTCANHDDPARRIVYNQCGLRSSGSCNFCLNQETECKINDEYTTLRENLTGSCPSTMNDGLRQRNQHSHFHKHVLYMHLCPHYSPKGNGICSRQNRWIFHQHLRFHLDFVRCPAKLHSVLVLRKHCIHGLYRLCIEPQSITDETLHLKQVLYHLARMTELYGSLFPLSTQWFEYFYHTIQRTLVPEIYNGLGMSIMRKMSALQEIKTEAAFRLHTNHQFRTEANLKMCYELGLLRRLKRISVVPTPPQYQQFCETGDVFLNVVYHDGIRYSNYCNKKTDDSNVTFIEYARVRFAKIIGMLLKENNTDLRFILKKYCNTNDHLIDISNKLYEEDVPQMHIQNWVDSVSKSSFGGRVTLTNTVVVVSADSIVGHAVVVKRNNNCVALPFSRRISLS,not soluble
2,MAQIIDFFAAFRGYYSDGSTFIQIISLGSHHNLSVHISERMLSESGIKLGNFLSATVSLAEHPKNFQLKRLNLQVTVEGNFAKVHGIEANLEKNADGILVFSTNNFASAKATNQGLEIGRYKITVQAVKPSEKDLFNGMKFFGTVEEKISGLTRRVASNNTNQVIGEGFRNMSISGKRTVS,not soluble
3,QSLVKDFLSGVFMLIEDQYGVGDTIDVGDVVGTVEDVSLRLTTLRDINGTQWFVRNGEILRVGNFSQEYAVAIINVPIALDEKASDAIALIEKSVADEAQLQEVADVLLDDPVVDGVNSVGLDHMVIRTRVTTLPDQQWFIERKMRARILTDLQRNGIDTPYPEGIGAYRRLDDEE,not soluble
4,MSLSVLKICTKDQKGLIYRISDVIFKYHINIVKNDEFVGEGMFFFRALLEGEFDKEAFIGTLEAMLGQEALIELCEKRKKDIVVFATKESHCLGDLLIKHYSNELEANIKAVISNHNSLKDLVEKFEIPYHFISAENLDRKEQENQILKCLEQYKFDYLVLAKYMRILSPDFVRHFEGKIINIHHSFLPAFIGANPYKQAFERGVKIIGATAHFVNNNLDEGPIITQAVSPVNHEFTWQDMQQAGRNIEKDVLSKALDLAFEDRIFIHNNKTIIFEGHHHHHH,soluble
5,MEKDIKRQIQILEIITSEEKWFTTIEISKILRCCNKTIMKDISFIKDFLPEDWHIKIKKGKGVRIYLPYNKHRNEITFLLFRESLTFRILQHLFERETKTIATLAERLYIQVPSILPALKRVENYLKKFGLKLRKKPLRLEGDEVRIMIMYLDLYLKSYNDTEWPFEKLKKEVIFQYLGTLEESLGISLHVVSKRHLSFFIAILLKRKQQGYKVQLNRKFLYFNTETPDYVKIGRIFEKLEREFGVSLTVQDKILLTISIKSSKYVYKDINKEKEESVQYFKEGNLSIYELVKDFINSLEEKLKVDLISDEEFIFALVDYFKRTIYHLQYLCMFERPQKQTIQYMQTEHSETFSAVKEVYTEFVKKNEIADYVSVEEIAKVTMYIEASRLRYTSNYKKVLLVTGESESWAEYLAATLAKRFGDKIQISTVFFAKKSDHDVNADFIISTIPLDLGSTPIICINSIPTERDYTNIQYYLDLQDG,not soluble
6,MGSDKIHHHHHHMIRSLWIAKTGLDAQQMQMDVIANNLANVSTNGFKKTRAVFEDLLYQNIRQPGAQSSQQTQLPSGLQLGTGVRPVATERIHIQGNLQQTGNNKDVAISGEGFFQVLLPDGSTAYTRDGAFQLDNQGQLVTASGFTVQPAIIVPPNALSLTVGRDGTVSVVLPDNPNNAVQIGTFQLATFINPAGLQSRGENLYIETAASGPANINQPGLNGTGLLVHQYLETSNVNVAEELVSMIQTQRAYEINSKAISTSDQMLQRLSQL,not soluble
7,DDVPPRIARAMENEEYWDFDIFELEAATHNRPLIYLGLKMFARFGICEFLHCSESTLRSWLQIIEANYHSSNPYHNSTHSADVLHATAYFLSKERIKETLDPIDEVAALIAATIHDVDHPGRTNSFLCNAGSELAILYNDTAVLESHHAALAFQLTTGDDKCNIFKNMERNDYRTLRQGIIDMVLATEMTKHFEHVNKFVNSINKPLATLEENGETDKNQEVINTMLRTPENRTLIKRMLIKCADVSNPCRPLQYCIEWAARISEEYFSQTDEEKQQGLPVVMPVFDRNTCSIPKSQISFIDYFITDMFDAWDAFVDLPDLMQHLDNNFKYWKGLDEM,soluble
8,MVNFKDKSMPTAIEKALDFIGGMNTSASVPHSMDESTAKGILKYLHDLGVPVSPEVVVARGEQEGWNPEFTKKVAGWAEKVASGNRILIKNPEYFSTYMQEQLKELVLEHHHHHH,soluble
9,MSLRINGQAELSGANTFLQAQVQLTGEVEIKLQKPLQLTAAKAATEIHLRIPDFVVWKDLFESTPFAVPAPLHVLTGDIELDVHAQLTDLDSPLQADATAQSRLSSKNQKLFVKATADLETLGKILKPRGLKVHADVVLQDVHLQAPPLRLAVPPQVLPDKRFVMRKDLDIIEEEKPAPTSRIPFELLWSVNIKTEKPVLISSNLLQSPVPVALDMQVQSDRKPQGKVMVQSFPFEFFRKKATVNNVDLIFHPDTVAPELSGKISYSNPEVNIRILLLGNTQRPIVNLESDPQLNQQQILSVLLFDKSLDELNEDEVNSTSNMSRAVSDGALGLFSLMFLSSTPIQSISYDPNSQSYTARMRLDDNTTFSMQSNMTEQRQFTLRRRLGGNWSVRTELSQEDSRADVVQTLLEWMRRFEGHHHHHH,not soluble
10,MKTHQYELIDEKVFEHEFDNGLKLFIIPKPGFQKTYVTYTTQFGSLDNHFKPIGSQQFVKVPDGVAHFLEHKLFEKEDEDLFTAFAEENAQANAFTSFDRTSYLFSATSNIESNIKRLLNMVETPYFTEETVNKEKGIIAEEIKMYQEQPGYKLMFNTLRAMYSKHPIRVDIAGSVESIYEITKDDLYLCYETFYHPSNMVLFVVGDVSPQSIIKLVEKH,not soluble
11,MSSLARGISRRRTEVATQVEAAPTGLRPNAVVGVRLAALADQVGAALAEGPAQRAVTEDRTVTGVTLRAQDVSPGDLFAALTGSTTHGARHVGDAIARGAVAVLTDPAGVAEIAGRAAVPVLVHPAPRGVLGGLAATVYGHPSERLTVIGITGTSGKTTTTYLVEAGLRAAGRVAGLIGTIGIRVGGADLPSALTTPEAPTLQAMLAAMVERGVDTVVMEVSSHALALGRVDGTRFAVGAFTNLSRDHLDFHPSMADYFEAKASLFDPDSALRARTAVVCIDDDAGRAMAARAADAITVSAADRPAHWRATDVAPTDAGGQQFTAIDPAGVGHHIGIRLPGRYNVANCLVALAILDTVGVSPEQAVPGLREIRVPGRLEQIDRGQGFLALVDYAHKPEALRSVLTTLAHPDRRLAVVFGAGGDRDPGKRAPMGRIAAQLADLVVVTDDNPRDEDPTAIRREILAGAAEVGGDAQVVEIADRRDAIRHAVAWARPGDVVLIAGKGHETGQRGGGRVRPFDDRVELAAALEALERRA,soluble
12,GSSHHHHHHMLKIGSHVSMSGKKMLLAASEEAVSYGATTFMIYTGAPQNTRRKPIEELNIEAGRKHMEQNGIEEIIIHAPYIINVGNTTKPETFQLGVDFLRMEIERTSALGVAKQIVLHPGAHVGAGADAGIQQIIKGLNEVLTPDQTVNIALETMAGKGTECGRSFEEIAKIIDGVKYNEKLSVCFDTCHTHDAGYDIVNNFDGVLNEFDKIVGIDRLQVLHINDSKNVRGAGKDRHENIGFGHIGYKALHHIVHHPQLTHVPKILETPYVGEDKKDKKPPYKLEIEMLKNGTFDEGLLEKIKAQ,soluble
13,MAHHHHHHMKRDRDDSVVGTPNGKWDVSPHGTLGVEAKEFERNAVRRYVFGLVHLKNEGPKANAVDVSESIVRSFNERFRRIVKIGQGSFGEVYIVFDTVTQTHLTMKRMQLLRGAGRRVMGLCNTTSREMNLLRVLKHVNIVELFDYHVVPDGTLIMLMPVIAYDLVSLIRLWRNGGPRGEPSAGRMPLPTIKCIFRQLLTGLAYLHKERVIHRDLKPTNVMINEKGVVKIIDFGWARFCPARWRGPMTGPPCPVAYRPPEVLLGGEHAVNYDASVDLWCCGCILFEMLSGGKMFINARSEAEAVAGITDWLGSPSSKSTLYYGHSAASLIRFKQNRPSRLAHRCELLHIDRDSVDMLDKMLQLEPKWRMPAEELLRHRWFSSAPVACEPHEISLPEHNMYRWLDSKRPS,soluble
14,MGSDKIHHHHHHMKGFDAKFRDFPDYIVGITKEIWEDRGIATLHEYYAEDIVVRSPASVVTGNQGVIAATMATLAEFPDRVLLGEDVIWSGTPEDGMLSSHRIISQATHAGDGVYGAATGKRLEYRILADCHAKNNAIDDEWLIRDQTAIVTQLGWTPRDYAADLIMREGGPEACVKPLTPDTDQPGPYKGRGNDNPWGERLADVLTRIMGADMAAIPEVYDRACHLEYPGHVTAHGPAEADRFWMSLRAAFPNAAFTIDHQIGREDDHMPPRAAIRWSLHGTHEGWGGFGQPTGAEVYIVGITHAEFGQVGTAEPKLRREYTLFDETSVWKQILLHEAAK,not soluble
15,MNFEDVFREFGELWYDIEFVLTTVIKTKNVTPILTLSGEFCVPGIHALYNIFHIMISVLRIFQKVKHDTWHLVTDYVNILETRLKPFERTPCFITNTALETIIQELCEYWRMLENVPCKDIRSIEGARFTENDWKNELIRIGLSDIFPELVEFFDAGYQVLLNIAQNGDTLKTSDLICHLESTQAFCFSSRFKFLEVASDIQQGIYPKFRNSVNVFIGIASKSESLLPHLKARSRYEGILSAMQVDKQLVPPPIQICHKLIIDAETVSNPTPVPQQLEKKTENCSECSDVRMEMYTVKDVLQNVQKQLKNMQQNSEQFETKLVASDNKTKNFEKQLEDERRKNNKHLESSRKTLISKNEQLEALKRRATALSNCQAENQTLKFKIAEHHDLEKQLNISNKDVTQARDQLSGQISELEIQLKSELKNVEHLNKEHKKAIDLANEISKLKTEIERETSISKQLEKEISQLRTETDEMNIVITQSLEMENLQLRDVTKKFETENASLLKTNQQLSIQNEEQKRLIQVLLEKQQTAPSSSDFPVPSTQMTDNEENSRQQLWKYQKIKDSFRDGMKLRKAEAMVKKLTSLDRDLGVHQMAHRELENFKKLTSYYLQAIEMNIPKIKNNGSSDLEQLPEAPKFSNEFMRFYRNATGKQPLTSSSSSSANPRSTHIEGSSISTMPSTSSRGNVQHHSGSAVRGQSITPTGLSQVPMSPRKLFSQPDIVTASVPSTELDDTECAICLDEMTNFKETIKCECRRRFHLKCATKWLNEKRECPTCRKLLLNPADYPPLN,not soluble
16,MGSDKIHHHHHHMNILIVYGTTEGQTGKIAARTATHLRERGHQVELRDSAALASDLKLGHFDAFVIAASVHQEHHQETVTNFVFAHHEALSTKPSALISVSLSAALGDQKKDAQKYVDRFVSVTDWQPSMTLLLGGALRFNKYDYFQEQFVKFVVMKSGDPSPERDHEFTDWNALANFADRFLETAG,not soluble
17,MLKIGVLVSGRGSNLQAIIDAIESGKVNASIELVISDNPKAYAIERCKKHNVECKVIQRKEFPSKKEFEERMALELKKKGVELVVLAGFMRILSHNFLKYFPNKVINIHPSLIPAFQGLHAQKQAVEFGVKFSGCTVHIVDESVDAGPVIVQAVVPVLPEDDENTLADRILKWEHKILPQTVQWFAQDRIIIDGRKVIVKDATYGTLPVNPALEIF,soluble
18,MGSDKIHHHHHHMTTKKFRMEDVGLSKLKVEKNPKDVKQTEWKSVLPNEVYRVARESGTETPHTGGFNDHFEKGRYVCLCCGSELFNSDAKFWAGCGWPAFSESVGQDANIVRIVDRSHGMHRTEVRCKTCDAHLGHVFNDGPKETTGERYCINSVCMAFEKKD,not soluble
